This assay has as its target anaphase-promoting complex/cyclosome (APC/C), phosphorylated, of mitotic cells (human (endogenous in U2OS)) (UniProt P30260). As to the kind of experiment: co-sedimentation.
Chain of UniProt P30260 (P30260 whole entry, looked up, one chain of several): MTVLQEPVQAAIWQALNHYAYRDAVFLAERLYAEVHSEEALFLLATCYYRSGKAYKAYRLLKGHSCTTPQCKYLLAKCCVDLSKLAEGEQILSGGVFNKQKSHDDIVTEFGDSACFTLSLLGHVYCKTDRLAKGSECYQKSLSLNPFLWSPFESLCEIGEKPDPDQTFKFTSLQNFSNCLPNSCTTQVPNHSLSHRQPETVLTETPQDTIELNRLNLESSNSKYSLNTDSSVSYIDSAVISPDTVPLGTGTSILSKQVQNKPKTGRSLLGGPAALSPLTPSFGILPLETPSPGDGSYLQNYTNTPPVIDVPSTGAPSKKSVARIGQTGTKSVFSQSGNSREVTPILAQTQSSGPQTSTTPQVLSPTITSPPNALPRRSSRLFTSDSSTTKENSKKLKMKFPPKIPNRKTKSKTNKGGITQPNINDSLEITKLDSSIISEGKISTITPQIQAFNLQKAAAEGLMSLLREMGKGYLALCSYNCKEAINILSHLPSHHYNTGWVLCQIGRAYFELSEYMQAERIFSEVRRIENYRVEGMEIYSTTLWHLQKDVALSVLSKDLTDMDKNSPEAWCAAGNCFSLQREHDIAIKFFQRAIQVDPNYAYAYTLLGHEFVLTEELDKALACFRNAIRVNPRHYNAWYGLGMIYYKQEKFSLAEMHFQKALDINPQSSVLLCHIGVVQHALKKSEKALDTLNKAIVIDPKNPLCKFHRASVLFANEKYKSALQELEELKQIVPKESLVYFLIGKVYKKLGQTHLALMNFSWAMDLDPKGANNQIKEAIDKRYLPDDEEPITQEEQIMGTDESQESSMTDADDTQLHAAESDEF

In the case of “cyclin B1–N–Cks1–Venus (from UniProt P14635;P61024)”, the percent comigrating amounted to 40%.

The values are drawn from PMC2928021.
